Data on 39 molecules can be found in patent publication US20230159662A1 (Kyowa Kirin, published 2023).

Positions count from the first letter of the chain named. Names may count otherwise. Like-named read-outs stand apart in the source and are kept apart here.

For test [1], the target named is T1, human CD16a (Val type) stably expressed on NK-92 cells (NK-92/CD16 transfectant) (human, UniProt P08637 17-254). Briefly: cell-based or functional assay.
Test [2] has as its target T1, human CD16a (Val type) stably expressed …. Briefly: cell-based or functional assay. The source holds these as a separate data set.

T1 sequence (P08637 17-254 F176V): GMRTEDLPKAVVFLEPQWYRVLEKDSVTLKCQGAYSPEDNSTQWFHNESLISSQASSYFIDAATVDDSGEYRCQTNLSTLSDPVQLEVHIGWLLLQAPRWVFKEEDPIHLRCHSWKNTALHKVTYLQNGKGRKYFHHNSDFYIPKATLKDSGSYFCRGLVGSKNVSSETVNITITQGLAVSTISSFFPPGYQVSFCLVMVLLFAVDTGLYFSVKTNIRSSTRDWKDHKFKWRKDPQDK

B1: human IgG1 anti-human CCR4 antibody (KM2160), S298A/E333A/K334A (AAA) (antibody)
heavy: EVQLVESGGDLMKPGGSLKISCAASGFIFSNYGMSWVRQTPDMRLEWVATISSASTYSYYPDSVKGRFTISRDNAENSLYLQMNSLRSEDTGIYYCGRHSDGNFAFGYWGRGTLVTVSAASTKGPSVFPLAPSSKSTSGGTAALGCLVKDYFPEPVTVSWNSGALTSGVHTFPAVLQSSGLYSLSSVVTVPSSSLGTQTYICNVNHKPSNTKVDKKVEPKSCDKTHTCPPCPAPELLGGPSVFLFPPKPKDTLMISRTPEVTCVVVDVSHEDPEVKFNWYVDGVEVHNAKTKPREEQYNATYRVVSVLTVLHQDWLNGKEYKCKVSNKALPAPIAATISKAKGQPREPQVYTLPPSRDELTKNQVSLTCLVKGFYPSDIAVEWESNGQPENNYKTTPPVLDSDGSFFLYSKLTVDKSRWQQGNVFSCSVMHEALHNHYTQKSLSLSPGK
light: DVLMTQTPLSLPVSLGDQASISCRSSRNIVHINGDTYLEWYLQRPGQSPKLLIYKVSNRFSGVPDRFSGSGSGTDFTLKISRVEAEDLGVYYCFQGSLLPWTFGGGTRLEIRRTVAAPSVFIFPPSDEQLKSGTASVVCLLNNFYPREAKVQWKVDNALQSGNSQESVTEQDSKDSTYSLSSTLTLSKADYEKHKVYACEVTHQGLSSPVTKSFNRGEC
Take B1: the “relative ADCC activity (AAA = 100)” value in test [1] is 100 relative, AAA at 0.1 µg/mL = 100.

B2: human IgG1 anti-human CCR4 antibody (KM2160), S239D/I332F (antibody)
heavy: not shown
light: B1 light
Take B2: the “relative ADCC activity (AAA = 100)” value in test [2] was 93 relative, AAA at 0.1 µg/mL = 100.

B3: human IgG1 anti-human CCR4 antibody (KM2160), S239D/I332Y (antibody)
heavy: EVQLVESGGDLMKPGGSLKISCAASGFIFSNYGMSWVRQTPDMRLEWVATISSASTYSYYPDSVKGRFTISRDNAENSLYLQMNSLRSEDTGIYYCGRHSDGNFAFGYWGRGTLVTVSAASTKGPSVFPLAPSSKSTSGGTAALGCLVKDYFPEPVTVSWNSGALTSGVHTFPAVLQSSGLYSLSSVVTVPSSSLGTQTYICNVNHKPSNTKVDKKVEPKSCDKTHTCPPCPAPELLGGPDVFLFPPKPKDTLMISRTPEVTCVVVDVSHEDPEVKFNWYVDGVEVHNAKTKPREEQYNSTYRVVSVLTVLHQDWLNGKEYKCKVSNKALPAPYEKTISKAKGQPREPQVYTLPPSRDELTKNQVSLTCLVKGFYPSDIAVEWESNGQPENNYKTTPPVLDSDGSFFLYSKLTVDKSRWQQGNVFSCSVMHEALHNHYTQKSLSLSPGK
light: B1 light
Consider B3, for which the “relative ADCC activity (AAA = 100)” value in test [2] is 123 relative, AAA at 0.1 µg/mL = 100.

B4: human IgG1 anti-human CCR4 antibody (KM2160), S298A/E333A/K334A (AAA)/L235T (antibody)
heavy: B1 heavy with L237T
light: B1 light
Consider B4, for which, in test [1], the “relative ADCC activity (AAA = 100)” value is -69 relative, AAA at 0.1 µg/mL = 100.

B5: human IgG1 anti-human CCR4 antibody (KM2160), S239D/A330F (antibody)
heavy: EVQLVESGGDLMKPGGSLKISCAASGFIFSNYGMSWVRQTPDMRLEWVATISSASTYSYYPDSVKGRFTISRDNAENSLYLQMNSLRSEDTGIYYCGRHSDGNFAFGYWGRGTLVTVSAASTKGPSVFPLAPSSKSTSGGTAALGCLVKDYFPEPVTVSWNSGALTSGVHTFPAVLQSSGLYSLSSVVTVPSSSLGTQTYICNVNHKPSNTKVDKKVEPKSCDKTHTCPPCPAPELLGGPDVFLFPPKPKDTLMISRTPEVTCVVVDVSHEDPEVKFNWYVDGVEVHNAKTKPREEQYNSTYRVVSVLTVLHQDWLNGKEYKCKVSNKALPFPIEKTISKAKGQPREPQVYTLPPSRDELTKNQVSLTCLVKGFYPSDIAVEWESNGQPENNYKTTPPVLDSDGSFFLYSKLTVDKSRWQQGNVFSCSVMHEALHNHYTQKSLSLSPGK
light: B1 light
B5: in test [1], the “relative ADCC activity (AAA = 100)” value is 161 relative, AAA at 0.1 µg/mL = 100.

B6: human IgG1 anti-human CCR4 antibody (KM2160), S298A/E333A/K334A (AAA)/F243L (antibody)
heavy: B1 heavy with F245L
light: B1 light
As to B6, in test [1], the “relative ADCC activity (AAA = 100)” value was 79 relative, AAA at 0.1 µg/mL = 100.

B7: human IgG1 anti-human CCR4 antibody (KM2160), S298A/E333A/K334A (AAA)/P247L (antibody)
heavy: B1 heavy with P249L
light: B1 light
With B7, the “relative ADCC activity (AAA = 100)” value in test [1] is 160 relative, AAA at 0.1 µg/mL = 100.

B8: human IgG1 anti-human CCR4 antibody (KM2160), S298A/E333A/K334A (AAA)/E294W (antibody)
heavy: B1 heavy with E296W
light: B1 light
Turning to B8, in test [1], the “relative ADCC activity (AAA = 100)” value is 171 relative, AAA at 0.1 µg/mL = 100.

B9: human IgG1 anti-human CCR4 antibody (KM2160), S298A/E333A/K334A (AAA)/D265G (antibody)
heavy: B1 heavy with D267G
light: B1 light
In the case of B9, the “relative ADCC activity (AAA = 100)” value in test [1] was -89 relative, AAA at 0.1 µg/mL = 100.

B10: human IgG1 anti-human CCR4 antibody (KM2160), S239D/I332W (antibody)
heavy: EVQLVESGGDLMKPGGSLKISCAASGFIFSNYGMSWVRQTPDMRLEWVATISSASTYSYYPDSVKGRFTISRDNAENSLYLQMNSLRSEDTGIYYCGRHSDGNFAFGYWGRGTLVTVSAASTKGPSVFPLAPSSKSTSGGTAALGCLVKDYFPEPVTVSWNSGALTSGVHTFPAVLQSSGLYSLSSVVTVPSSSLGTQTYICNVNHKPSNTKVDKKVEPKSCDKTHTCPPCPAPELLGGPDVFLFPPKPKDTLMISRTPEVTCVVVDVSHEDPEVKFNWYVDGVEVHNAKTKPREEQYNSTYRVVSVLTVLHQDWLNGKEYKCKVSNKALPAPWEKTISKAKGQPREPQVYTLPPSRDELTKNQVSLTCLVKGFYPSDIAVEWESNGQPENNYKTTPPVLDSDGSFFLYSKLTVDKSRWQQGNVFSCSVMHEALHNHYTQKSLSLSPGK
light: B1 light
Turning to B10, in test [2], the “relative ADCC activity (AAA = 100)” value is 94 relative, AAA at 0.1 µg/mL = 100.

B11: human IgG1 anti-human CCR4 antibody (KM2160), S298A/E333A/K334A (AAA)/F372Y (antibody)
heavy: B1 heavy with F374Y
light: B1 light
Consider B11, for which, in test [1], the “relative ADCC activity (AAA = 100)” value was 70 relative, AAA at 0.1 µg/mL = 100.

B12: human IgG1 anti-human CCR4 antibody (KM2160), S239D/I332L (antibody)
heavy: not shown
light: B1 light
Consider B12, for which, in test [2], the “relative ADCC activity (AAA = 100)” value was 82 relative, AAA at 0.1 µg/mL = 100.

B13: human IgG1 anti-human CCR4 antibody (KM2160), S239D/I332T (antibody)
heavy: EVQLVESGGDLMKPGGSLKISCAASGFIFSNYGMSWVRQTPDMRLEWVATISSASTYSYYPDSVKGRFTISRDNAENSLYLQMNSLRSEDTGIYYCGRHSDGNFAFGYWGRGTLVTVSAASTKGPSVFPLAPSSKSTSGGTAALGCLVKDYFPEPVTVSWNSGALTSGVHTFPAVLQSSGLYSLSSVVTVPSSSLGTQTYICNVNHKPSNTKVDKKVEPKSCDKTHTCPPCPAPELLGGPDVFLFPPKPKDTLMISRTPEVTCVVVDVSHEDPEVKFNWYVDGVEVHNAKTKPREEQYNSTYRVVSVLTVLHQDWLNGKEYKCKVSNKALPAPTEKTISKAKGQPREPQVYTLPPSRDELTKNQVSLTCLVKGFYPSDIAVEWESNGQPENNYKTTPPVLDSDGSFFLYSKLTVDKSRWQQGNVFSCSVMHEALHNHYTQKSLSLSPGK
light: B1 light
On to B13, for which the “relative ADCC activity (AAA = 100)” value in test [2] is 72 relative, AAA at 0.1 µg/mL = 100.

B14: human IgG1 anti-human CCR4 antibody (KM2160), S298A/E333A/K334A (AAA)/P247L/N421K (antibody)
heavy: B1 heavy with P249L, N423K
light: B1 light
For the molecule B14, the “relative ADCC activity (AAA = 100)” value in test [1] is 175 relative, AAA at 0.1 µg/mL = 100.

B15: human IgG1 anti-human CCR4 antibody (KM2160), S239D/K326T (antibody)
heavy: not shown
light: B1 light
On to B15, for which the “relative ADCC activity (AAA = 100)” value in test [1] is 179 relative, AAA at 0.1 µg/mL = 100.

B16: human IgG1 anti-human CCR4 antibody (KM2160), S298A/E333A/K334A (AAA)/A327D (antibody)
heavy: B1 heavy with A329D
light: B1 light
For the molecule B16, the “relative ADCC activity (AAA = 100)” value in test [1] is -28 relative, AAA at 0.1 µg/mL = 100.

B17: human IgG1 anti-human CCR4 antibody (KM2160), S298A/E333A/K334A (AAA)/E258H (antibody)
heavy: B1 heavy with E260H
light: B1 light
In the case of B17, in test [1], the “relative ADCC activity (AAA = 100)” value was 94 relative, AAA at 0.1 µg/mL = 100.

B18: human IgG1 anti-human CCR4 antibody (KM2160), printed as S298A/E333A/K334A, CH of SEQ ID NO 120 (antibody)
heavy: B1 heavy with A300T
light: B1 light
Take B18: in test [1], the “relative ADCC activity (AAA = 100)” value is -97 relative, AAA at 0.1 µg/mL = 100.

B19: human IgG1 anti-human CCR4 antibody (KM2160), S298A/E333A/K334A (AAA)/R293P (antibody)
heavy: B1 heavy with R294P
light: B1 light
As for B19, in test [1], the “relative ADCC activity (AAA = 100)” value is 125 relative, AAA at 0.1 µg/mL = 100.

B20: human IgG1 anti-human CCR4 antibody (KM2160), S298A/E333A/K334A (AAA)/K326T (antibody)
heavy: B1 heavy with K328T
light: B1 light
With B20, the “relative ADCC activity (AAA = 100)” value in test [1] was 136 relative, AAA at 0.1 µg/mL = 100.

B21: human IgG1 anti-human CCR4 antibody (KM2160), S298A/E333A/K334A (AAA)/G236S (antibody)
heavy: B1 heavy with G238S
light: B1 light
As to B21, in test [1], the “relative ADCC activity (AAA = 100)” value was -46 relative, AAA at 0.1 µg/mL = 100.

B22: human IgG1 anti-human CCR4 antibody (KM2160), S298A/E333A/K334A (AAA)/A339T (antibody)
heavy: B1 heavy with A341T
light: B1 light
As to B22, in test [1], the “relative ADCC activity (AAA = 100)” value is 36 relative, AAA at 0.1 µg/mL = 100.

B23: human IgG1 anti-human CCR4 antibody (KM2160), S298A/E333A/K334A (AAA)/E283L (antibody)
heavy: B1 heavy with E285L
light: B1 light
For B23, the “relative ADCC activity (AAA = 100)” value in test [1] was 82 relative, AAA at 0.1 µg/mL = 100.

B24: human IgG1 anti-human CCR4 antibody (KM2160), S239D/I332A (antibody)
heavy: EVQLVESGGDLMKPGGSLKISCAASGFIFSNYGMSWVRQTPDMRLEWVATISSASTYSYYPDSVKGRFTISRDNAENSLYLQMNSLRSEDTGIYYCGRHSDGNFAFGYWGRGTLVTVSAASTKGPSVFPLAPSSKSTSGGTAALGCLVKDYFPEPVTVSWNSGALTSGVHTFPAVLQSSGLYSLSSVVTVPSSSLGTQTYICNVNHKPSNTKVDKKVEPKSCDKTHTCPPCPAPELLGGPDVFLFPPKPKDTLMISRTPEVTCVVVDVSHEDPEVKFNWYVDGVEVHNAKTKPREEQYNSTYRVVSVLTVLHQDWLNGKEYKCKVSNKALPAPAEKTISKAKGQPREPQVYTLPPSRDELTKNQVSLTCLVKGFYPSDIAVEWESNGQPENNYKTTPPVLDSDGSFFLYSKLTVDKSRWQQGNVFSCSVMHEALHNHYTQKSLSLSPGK
light: B1 light
On to B24, for which, in test [2], the “relative ADCC activity (AAA = 100)” value is 94 relative, AAA at 0.1 µg/mL = 100.

B25: human IgG1 anti-human CCR4 antibody (KM2160), S298A/E333A/K334A (AAA)/K248M (antibody)
heavy: B1 heavy with K250M
light: B1 light
As for B25, the “relative ADCC activity (AAA = 100)” value in test [1] was 165 relative, AAA at 0.1 µg/mL = 100.

B26: human IgG1 anti-human CCR4 antibody (KM2160), S239D/I332D (antibody)
heavy: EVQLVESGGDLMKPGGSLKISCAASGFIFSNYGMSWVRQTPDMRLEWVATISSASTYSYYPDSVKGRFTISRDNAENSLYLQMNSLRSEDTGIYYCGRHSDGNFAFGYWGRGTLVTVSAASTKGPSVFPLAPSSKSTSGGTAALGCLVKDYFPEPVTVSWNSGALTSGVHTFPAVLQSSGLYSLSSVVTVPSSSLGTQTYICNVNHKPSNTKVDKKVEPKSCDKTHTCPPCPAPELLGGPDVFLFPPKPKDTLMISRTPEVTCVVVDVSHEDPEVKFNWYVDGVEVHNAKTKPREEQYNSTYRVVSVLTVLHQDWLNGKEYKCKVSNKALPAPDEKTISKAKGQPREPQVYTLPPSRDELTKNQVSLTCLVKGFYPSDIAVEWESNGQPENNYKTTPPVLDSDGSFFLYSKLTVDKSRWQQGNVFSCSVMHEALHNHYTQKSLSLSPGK
light: B1 light
Turning to B26, the “relative ADCC activity (AAA = 100)” value in test [2] was 150 relative, AAA at 0.1 µg/mL = 100.

B27: human IgG1 anti-human CCR4 antibody (KM2160), S298A/E333A/K334E (antibody)
heavy: B1 heavy with A336E
light: B1 light
On to B27, for which the “relative ADCC activity (AAA = 100)” value in test [1] is 114 relative, AAA at 0.1 µg/mL = 100.

B28: human IgG1 anti-human CCR4 antibody (KM2160), S239D (antibody)
heavy: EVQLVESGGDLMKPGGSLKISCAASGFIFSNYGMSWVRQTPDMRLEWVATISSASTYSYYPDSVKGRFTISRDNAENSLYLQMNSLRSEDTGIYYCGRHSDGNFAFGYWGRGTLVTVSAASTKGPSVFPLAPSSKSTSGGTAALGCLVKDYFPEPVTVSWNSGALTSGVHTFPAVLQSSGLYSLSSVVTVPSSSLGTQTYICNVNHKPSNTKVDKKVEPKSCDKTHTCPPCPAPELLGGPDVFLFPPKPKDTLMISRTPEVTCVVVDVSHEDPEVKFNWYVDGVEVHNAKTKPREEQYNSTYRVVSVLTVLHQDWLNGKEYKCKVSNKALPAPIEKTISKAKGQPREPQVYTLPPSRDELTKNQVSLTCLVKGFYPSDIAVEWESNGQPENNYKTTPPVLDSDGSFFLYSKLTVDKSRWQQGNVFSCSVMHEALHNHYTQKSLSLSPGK
light: B1 light
Regarding B28, the “relative ADCC activity (AAA = 100)” value in test [1] is 116 relative, AAA at 0.1 µg/mL = 100.

B29: human IgG1 anti-human CCR4 antibody (KM2160), S298A/E333A/K334A (AAA)/V379M (antibody)
heavy: B1 heavy with V381M
light: B1 light
With B29, the “relative ADCC activity (AAA = 100)” value in test [1] was 51 relative, AAA at 0.1 µg/mL = 100.

B30: human IgG1 anti-human CCR4 antibody (KM2160), S298A/E333A/K334A (AAA)/S239D/I332E (antibody)
heavy: B1 heavy with S241D, I334E
light: B1 light
On to B30, for which the “relative ADCC activity (AAA = 100)” value in test [1] was 119 relative, AAA at 0.1 µg/mL = 100.

B31: human IgG1 anti-human CCR4 antibody (KM2160), S298A/E333A/K334A (AAA)/H268E (antibody)
heavy: B1 heavy with H270E
light: B1 light
As for B31, in test [1], the “relative ADCC activity (AAA = 100)” value was 164 relative, AAA at 0.1 µg/mL = 100.

B32: human IgG1 anti-human CCR4 antibody (KM2160), S239E (antibody)
heavy: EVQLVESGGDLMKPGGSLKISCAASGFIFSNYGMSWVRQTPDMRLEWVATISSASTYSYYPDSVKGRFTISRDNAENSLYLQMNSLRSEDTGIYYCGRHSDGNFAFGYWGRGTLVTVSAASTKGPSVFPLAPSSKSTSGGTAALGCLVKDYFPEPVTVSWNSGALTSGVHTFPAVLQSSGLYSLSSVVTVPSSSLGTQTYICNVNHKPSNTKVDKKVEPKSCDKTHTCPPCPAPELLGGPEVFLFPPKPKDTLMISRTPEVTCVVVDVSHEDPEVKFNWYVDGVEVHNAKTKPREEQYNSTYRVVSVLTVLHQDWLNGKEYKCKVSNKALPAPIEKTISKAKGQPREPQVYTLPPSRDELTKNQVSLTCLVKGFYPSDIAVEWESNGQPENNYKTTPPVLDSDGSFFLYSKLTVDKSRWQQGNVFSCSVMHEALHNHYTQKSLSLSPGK
light: B1 light
Regarding B32, the “relative ADCC activity (AAA = 100)” value in test [1] is 88 relative, AAA at 0.1 µg/mL = 100.

B33: human IgG1 anti-human CCR4 antibody (KM2160), S298A/E333A/K334A (AAA)/S239D (antibody)
heavy: B1 heavy with S241D
light: B1 light
B33: the “relative ADCC activity (AAA = 100)” value in test [1] is 291 relative, AAA at 0.1 µg/mL = 100.

B34: human IgG1 anti-human CCR4 antibody (KM2160), S298A/E333A/K334A (AAA)/P329R (antibody)
heavy: B1 heavy with P331R
light: B1 light
Take B34: the “relative ADCC activity (AAA = 100)” value in test [1] is 5 relative, AAA at 0.1 µg/mL = 100.

B35: human IgG1 anti-human CCR4 antibody (KM2160), S298A/E333A/K334A (AAA)/A330F (antibody)
heavy: B1 heavy with A332F
light: B1 light
Regarding B35, the “relative ADCC activity (AAA = 100)” value in test [1] is 96 relative, AAA at 0.1 µg/mL = 100.

B36: human IgG1 anti-human CCR4 antibody (KM2160), S239D/I332H (antibody)
heavy: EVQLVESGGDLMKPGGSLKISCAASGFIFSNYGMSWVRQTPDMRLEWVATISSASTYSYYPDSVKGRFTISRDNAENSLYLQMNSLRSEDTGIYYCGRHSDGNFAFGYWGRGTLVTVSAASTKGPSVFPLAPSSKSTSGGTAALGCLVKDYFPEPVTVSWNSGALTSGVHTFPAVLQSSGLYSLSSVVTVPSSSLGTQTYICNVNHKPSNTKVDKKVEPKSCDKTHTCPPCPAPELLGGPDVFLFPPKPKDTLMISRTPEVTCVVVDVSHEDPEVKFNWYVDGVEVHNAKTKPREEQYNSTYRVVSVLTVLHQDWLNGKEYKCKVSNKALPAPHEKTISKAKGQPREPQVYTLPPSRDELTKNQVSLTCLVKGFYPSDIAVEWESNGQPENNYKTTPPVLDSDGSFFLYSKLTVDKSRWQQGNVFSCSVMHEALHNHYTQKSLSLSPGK
light: B1 light
For the molecule B36, the “relative ADCC activity (AAA = 100)” value in test [2] is 84 relative, AAA at 0.1 µg/mL = 100.

B37: human IgG1 anti-human CCR4 antibody (KM2160), S239D/I332E (DE) (antibody)
heavy: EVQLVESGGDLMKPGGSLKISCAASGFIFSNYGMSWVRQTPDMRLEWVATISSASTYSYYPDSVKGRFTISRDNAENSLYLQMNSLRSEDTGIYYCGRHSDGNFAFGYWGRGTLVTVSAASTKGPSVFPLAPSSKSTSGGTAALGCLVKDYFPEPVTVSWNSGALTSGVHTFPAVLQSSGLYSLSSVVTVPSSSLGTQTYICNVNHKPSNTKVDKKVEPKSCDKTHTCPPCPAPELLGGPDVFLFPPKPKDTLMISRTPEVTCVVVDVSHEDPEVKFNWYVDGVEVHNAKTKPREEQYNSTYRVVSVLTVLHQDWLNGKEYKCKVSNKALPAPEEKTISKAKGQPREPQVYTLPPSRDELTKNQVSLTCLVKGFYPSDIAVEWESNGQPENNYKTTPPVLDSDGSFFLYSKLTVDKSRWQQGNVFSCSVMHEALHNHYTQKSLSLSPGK
light: B1 light
As to B37, the “relative ADCC activity (AAA = 100)” value in test [1] was 201 relative, AAA at 0.1 µg/mL = 100.

B38: human IgG1 anti-human CCR4 antibody (KM2160), S298A/E333A/K334A (AAA)/Q295T (antibody)
heavy: B1 heavy with Q297T
light: B1 light
Regarding B38, the “relative ADCC activity (AAA = 100)” value in test [1] was 4 relative, AAA at 0.1 µg/mL = 100.

B39: human IgG1 anti-human CCR4 antibody (KM2160), S298A/E333A/R292L/K334E (antibody)
heavy: B1 heavy with R294L, A336E
light: B1 light
On to B39, for which, in test [1], the “relative ADCC activity (AAA = 100)” value is 163 relative, AAA at 0.1 µg/mL = 100.
